This is an account of results in article PMC10528708.

The series has as its target T1, CHF-1Flu (tomato aspermy virus).
T1 chain: RKRHKLNR
Briefly: fluorescence polarization.

B1: d(CTG)10 (structured_DNA)
DNA: CTGCTGCTGCTGCTGCTGCTGCTGCTGCTG
In the case of B1, the affinity, expressed as Kd, was 440 ± 79 nM.

A word on the Kd: it is the constant that tells how readily two partners part at equilibrium. Higher therefore signals weaker binding.
